Experimental data reported in IntAct's records for PubMed 24485456.

B1: Synaptogenesis protein syg-1 (Caenorhabditis elegans), B1Q236 (parent)
chain: MVRWQTWPLLLLFQLVTCQQLQQRIVEAPKDTLAAVGETAILTCRVEHQQGPVQWMKDDFGLGTDRDKPLPGNKRYRMVGSAANGEYNLEISNVTLFDDDDFACQISESDHAKAVVSSKAKLTVLVRPTPPKIVKSHHSLKAIAGDPITQSCLSRKGKPPPTIGWAIASDEHGKHIVSWLGESRSKFGGIHAKPEISQETVIAHVNETTQVEEGGNNSREDSSIYSIMSNLSFIPRPEDDHKYLICISQHMTFPNKIEVDSVKLSLRYAPQINLTVASKLPLRENGSALLACNVNAKPLDNVKISWYKGNQKLRETGDTLTFETLKMEDHNRDIFCEATNEIGTTRGSIKLNVAFGARIMSTSQDKEVNEGDNAFFHCATLANPAPAIFWTRGDSDEIIGHGENLTLENVRTWQQGNYNCTATVEGFRKQILSHYLHIRGPPTVSMKDEVSASLDEATEIICEISGRPKTNNVRWTVNGKEINFNNGRITVHQYPKPYGKESILKIKDLKEEDFGVYNCSANNGLGFDNRGTLLKKRNILDWIVITAKFDRMVALAIISAGVLLVSLLCCLCMCRSNCRSRKSKFIDDQSDVTVKCEALDGQYFPEMYSSSPVDNVHLSTKDYISIPQNNPDLDFLGATGSFGPPGGLYPKCFNNSANEYIYNRYEHSYGSFGSGLSTPGGVSDMYGVAMSDKLPVMETLQEVETPKTSNYNFLSSPEVVRPISRTSTHV
partner: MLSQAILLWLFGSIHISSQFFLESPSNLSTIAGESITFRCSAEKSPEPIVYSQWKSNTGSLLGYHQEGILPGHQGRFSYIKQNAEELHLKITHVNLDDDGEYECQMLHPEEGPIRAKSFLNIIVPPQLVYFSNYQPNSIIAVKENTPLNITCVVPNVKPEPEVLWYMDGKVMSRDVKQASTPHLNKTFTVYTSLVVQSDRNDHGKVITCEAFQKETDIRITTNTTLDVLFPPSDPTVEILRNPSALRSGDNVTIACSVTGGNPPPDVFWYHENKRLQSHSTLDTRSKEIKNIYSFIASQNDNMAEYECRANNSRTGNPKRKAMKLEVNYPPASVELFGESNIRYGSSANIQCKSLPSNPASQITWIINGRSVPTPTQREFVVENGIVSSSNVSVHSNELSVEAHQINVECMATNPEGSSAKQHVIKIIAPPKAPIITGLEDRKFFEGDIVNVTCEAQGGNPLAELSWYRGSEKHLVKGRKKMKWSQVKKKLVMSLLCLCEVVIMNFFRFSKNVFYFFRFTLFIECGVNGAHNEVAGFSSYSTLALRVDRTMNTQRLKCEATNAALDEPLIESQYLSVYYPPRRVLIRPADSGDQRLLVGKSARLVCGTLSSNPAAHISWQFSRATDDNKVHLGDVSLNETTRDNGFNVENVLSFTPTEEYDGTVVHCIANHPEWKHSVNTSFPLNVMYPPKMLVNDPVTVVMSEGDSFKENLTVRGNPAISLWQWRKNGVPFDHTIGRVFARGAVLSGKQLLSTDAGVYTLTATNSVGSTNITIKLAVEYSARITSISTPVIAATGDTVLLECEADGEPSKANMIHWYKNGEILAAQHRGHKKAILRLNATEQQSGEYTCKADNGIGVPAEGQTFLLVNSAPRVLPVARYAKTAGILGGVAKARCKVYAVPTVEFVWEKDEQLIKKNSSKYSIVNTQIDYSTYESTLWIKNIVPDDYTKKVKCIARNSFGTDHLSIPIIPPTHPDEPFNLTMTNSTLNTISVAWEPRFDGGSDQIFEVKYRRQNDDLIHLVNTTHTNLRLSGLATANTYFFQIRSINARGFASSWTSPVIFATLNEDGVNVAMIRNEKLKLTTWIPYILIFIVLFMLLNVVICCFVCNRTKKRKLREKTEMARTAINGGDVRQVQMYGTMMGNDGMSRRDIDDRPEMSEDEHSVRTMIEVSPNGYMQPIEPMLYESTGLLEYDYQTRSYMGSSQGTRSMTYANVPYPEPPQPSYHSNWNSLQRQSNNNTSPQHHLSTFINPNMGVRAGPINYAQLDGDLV
B2: Synaptogenesis protein syg-2 (Caenorhabditis elegans), Q9U3P2 (parent)
chain: B1 partner
partner: B1 chain

Variants of: B1
Conditions: with syg2_caeel syg-2, Q9U3P2

effect of a mutation on the interaction | Variant
disrupting interaction strength | Q54A;F60A
decreasing interaction strength | Q54A
disrupting interaction strength | F60A
decreasing interaction strength | Q105A
disrupting interaction strength | Q54A;M56A;F60A;S107A

Variants of: B2
Conditions: with syg1_caeel syg-1, B1Q236

Variant | effect of a mutation on the interaction
Q53A | decreasing interaction strength
L61A | decreasing interaction strength

Other lines, results leading:

effect of a mutation on the interaction | Variant
decreasing interaction strength | R115A
disrupting interaction strength | Q105A
